# From paper PMC10901376 (Science Advances, 2024)
# B1: S. aureus TarL H300N (enzyme, UniProt Q2G1B8 1-562, looked up)
# chain: MVKSKIYIDKIYWERVQLFVEGHSENLDLEDSNFVLRNLTETRTMKANDVKIDGNQFVCRFNVAILDNGYYLPEDKYLLVNEQELDYIAQLNPDVINDAYQNLKPEQEEEYNELETQNGKINFLLQTYLKEFRKGGISKKTVYTVTPEISSDVNEFVLDVVVTTPEVKSIYIVRKYKELRKYFRKQSFNTRQFIFKAIFNTTKFFHLKKGNTVLFTSDSRPTMSGNFEYIYNEMLRQNLDKKYDIHTVFKANITDRRGIIDKFRLPYLLGKADYIFVDDFHPLIYTVRFRRSQEVIQVWNAVGAFKTVGFSRTGKKGGPFIDSLNHRSYTKAYVSSETDIPFYAEAFGIKEKNVVPTGVPRTDVLFDEAYATQIKQEMEDELPIIKGKKVILFAPTFRGSGHGTAHYPFFKIDFERLARYCEKNNAVVLFKMHPFVKNRLNIADKHKQYFVDVSDFREVNDILFITDLLISDYSSLIYEYAVFKKPMIFYAFDLEDYITTRDFYEPYESFVPGKIVQSFDALMDALDNEDYEGEKVIPFLDKHFKYQDGRSSERLVRNLFGS
# Molecular target: the molecule itself
# Experiment: cryo-EM structure
protein,measurement,value
B1,stoichiometry N,4
